Measurements: the DeepSol protein solubility set

Assay: soluble on expression in E. coli; label from the status in PepcDB or PDB records

Row | Sequence | soluble on expression in E. coli
1 | MAHHHHHHMCVPFKDQGQWIRQVALQVEEVAPSERGTDRPAAATPRHHMSVGVVDYYSKCGRICETVAVLCEEWMDSGYMDGFSSRLVKEANAGRSISDAPHRDAVFDSFCAPSPHCKKHAIFVRELDLALTTDTELRASIDADRPQEIETEEREMETMLHRLTREQGQSADVFSRDEIRRMKEAFVTGNKEDLQAVDPTAFDLTDDEFSTLKDYMHGEERKQQQQQRQRRPSAPSDADDL | not soluble
2 | MMVYIMNAFDIKSTKMDVLSISLHTSDLFDLEDVLVKLGKKFQESGVVPFVLDVQEFDYPESLDLAALVSLFSRHGMQILGLKHSNERWAAAAMKYHLLFCLSHSENVKELGQVEVQKTEDGQKARKTVLITSPVRTGQQVYAEDGDLIVTGAVSQGAELIADGNIHIYAPMRGRALAGAKGDTSARIFIHSMQAELVSVAGIYRNFEQDLPNHLHKQPVQILLQDNRLVISAIGSE | not soluble
3 | MITILGPTACGKTRLAVSLAYRLETEIISADSRQIYRGMDIGTGKDLADYQVGGTTIPCHLIDIRPAGDKYNLFAYQHDFHQAYASILARGMDPILCGGTGMYIEAVLKGYHLPDVPPNPTLRDRLQGKSLTELTLILAAYGPLHNKTDVDSAQRAIRAIEIAEYIKNNPVESTEFPPIDSLIIGLDLDRDTRRKRITDRLHARMHEGMIEEVKGLLDSGIPAEDLIYYGLEYKFVTLYLTGQTDYESMFTGLETAIHQFAKRQMTWFRGMERRGFLIHWIDALLPADEQCEAVMKLYGANGLEHHHHHH | soluble
4 | MFLTWENLFLTNQSRRRLKLLVVERSYNNVGNFLKEYFGGFFEIVNFDDLRLTMVDMVSLSSEYDVIVTDMILEQTTDSEILFFNQMAPSVVANRLTDM | not soluble
5 | MSLEMYPKIEDIKASYQNYCEFLEKVNTINLLKHKGKYIHYEDFNDNQIKRKIEKLESSILKTNVKYQKGAYIIYYKLRPGVIEFLRTMSEKYEIYLYTMGTLEHAKSCLFLLDPLRKFFGNRVFSRKDCLNSLKHLNKILPTYRSVSICIDDSDYIWKENSSCIKVHGYNYFPDINFFEDIKRAPYFLTKFFTFAQSYLNFTSNIYRFINFKCSEHEEFLKEGHHHHHH | not soluble
6 | MAHHHHHHMTADARTDDGGLRRAYTRSMPAVLRPLWLLEESMRDVQVQWEEIIEGVMVEDVSFSSVRAAVLHVERLASQLKAIKQELMPRLSHFSQKEEDSEQPFLRYCSCAAKPTVNGDNSICDLAQGEQTQAARLAARVWVWGVCVGTIMNDLELLSTSLSFAASTCLLEKFAEEVRLTEASTFFLGKDEGVASPLSDSDLLLACQLLYHLFTGDDAAAEMTCHRVLSLIDDCEERDDGKECRGCILSRLVRIAECVAAEDYGALQVLMKVDFFTGVDTLCSLPPLIIFFTQMMLDTVVHRQLVQGCFQNVWRPVINVDRPARDESPSVPSEAMMNSFCSSSRLSFTTKRRLMTCCAVFRESLPPRVPWPIPEDLMDRCFRMGL | not soluble
7 | MVVKSLVYGIYPRSERLRKAYNRWERGLVGNEEIRRTISEEKDRFYEYVKSVGISEFTDPLFNWHDIFRPIALSVSGVTLGPLKRYLETNTFYREPEISGHITLQRKLDTFDLLEENPPLPLFALAKGSSIFLPTPSSFYKMSSVKANIGAEELYKDLVNVYSDIIDIFKPRSLVLYEVFPYNGDNLSYLESLNQKISVHLLTKGKISEKNFNGIKHKFESIISDDHPEFLKNYAKYYGFKIIDVNKTKVEDPNADYGIENYEDAIVTSNDYFDFLPREIADIKVEVLGKVGEAAALEHHHHHH | not soluble
8 | MMLCFQEVALNGGNILSKFTERLLTILYPPICPGCKQRVSAYGTICSECWKDLQFITKPYCPVMGVPFVYDMGDGFLSGEALQNSLPFSRVRSVIVHKGVAQSLVTRLKYGDHVELASFMANWMVSAGREIVDDCDIIISVPLHFRRFLKRRYNQSAELARYIARVQKKEFKPGWLVRCRHTRPQVNLSARERKLNVLNAFEVPRKVKKYLKGRSILLIDDVFTTGATVTAAAATLKRAGARQVDVLTFSRVLKEASIFPNS | not soluble
9 | MSLNDFRPNPSLLLETSWEVCNKQGGIYTVLTSRAHEMMKRHDGRIIFIGPLLTEQEDLPTDFENTVPAILEDWHRDAAPSLDLRYVCGSWRTPGSPPVVLVDFEPLHAQKATLYYEMWEHFGIQSDKGYGDYDEASLFGIAAAQTMHSLCEYLCPEDQPAIGIFNEWMLGMGLLYSKRKTPRLKTLFLTHATTTGRSIAGNNKALYAYMPGYNGDQMAAELGVEAKHGIEKAAAHQSDTFATVSELTAKECRQLLERDPMVLPNGFEPNFVPQGEEYERRRAEARKRLLHVAEHLTGKQLPADTLLIATSGRYEYRNKGIDLFIDAASEAGRSGKLRTPTLAFILVPAWVAGARADLQYLLNHPDPTEYKEKPLPYPFLTHWLHDIQEQTISKRLDESAGSAGEVSFIFVPCYLNRKDGIFGLGYYDLLIGMDLTVFPSYYEPWGYTPLESIAFGIPTVTTDLSGFGLWAMQERGSRNDFSTGVAVIKRTDDNYAEAVQAIADLLYRWPAESTDRTACRLAAMQTASHAEWRLFYNRYEEAYSELLSRDEGHHHHHH | soluble
10 | MFIDTSELCDLYAEQVDVVEPIFSSFGGVSNFYGKVTTVKCFESNGLIAEVLEENGEGRVLVIDGGGAVRRGLIDAELAQLAVDNGWEGIIVYGAVRQIQQLENLDIGIHALAPIPVSADESSAGESDIPVNFGGVTFFPEDYIYADLTGIILSQEPLDLEDLEHHHHHH | not soluble
11 | MTMNANIEVRLKSPAHPGGFIKHEIIEPLALSVSNAAEVLGVSRAALSALLNERAHLPPEMALRIEKAFGVSMDTLMRMQNSYDIAQTRKRAEEIKVAPFSGKPIESNSVV | not soluble
12 | DVTPRRDAEYPPPEFLEAMKPLREICIKKTGVTEEAIIEFSDGKVHEDENLKCYMNCLFHEAKVVDDTGHVHLEKLHDALPDSMHDIALHMGKRCLYPEGENLCEKAFWLHKCWKESDPKHYFLI | soluble
13 | MPPRMSVAPERALIDVDREIRIDGFGPYACIDVTAEMRMCGVPWRSRATFLAGADGSLDLGRDSPVSGDYAEPDAMGLVWSMQCQDPPRAVFPPDRTDALTVHITASDGRHEAHATLVQEFLAEGVRHQAVRARAGGMSLSGELYTPP | not soluble
14 | MSPEEVKARGWKELDVILVTGDAYVDHSSFGTAIIGRVLEDAGFRVGIIAQPRWENPEDFKKLGKPRLFFSVSAGNTDSMVSNLTPGLKPRNKDAYSPGGKTGLRPNRAAIIYSNRIKEAFPDMPIVLGGIEASMRRFAHYDYLSDKVRQSILADAPADLVVYGMGELQIVEIAKRLQAGEDIKGIRDISGTVWKMEVKAWKELKGKGKEKAGEQDESENATEEVAKDKSLDPAEFFKEYVEIPSFSEVSQDKAVFAKAFRTYFLEQNPVTGKGIVQPHPKTIIIQNKPMRPLTEAELDHVYELPYTGETHPSYTEPVPALEMVKFSLTTHRGCF | not soluble
15 | MGSDKIHHHHHHKAVPLASINGEWNIIEVNGSKVTPGESRTLPFITFDTATGRVSGNSGCNRMMGSFDVNAKPGSMELKGMASTRMMCPDMTTERNVLGALAQVKGYKKAGKDKMFLCNESNRPVVVLEKKEADVKLSVLNGEWKIKEVNGEAITSGMEKQPFIAFDVKKKTLHGNAGCNLINGGFETSTTNAKSISFPGVASTMMACPDMEVEGKILKAMNEVKSFDKLSGGGIGLYDANNALVIVLEK | not soluble
16 | MDQGMFYLSAAYIVKTMISGGNLLKEYIEERAVAIANYIIDYNATVRQTARKFGISKSTVHKDVTDRLENINPSLAAQARVVLDINKAERHIRGGMATKEKYQHQLQACSRK | not soluble
17 | MAAPAAVRRGGRSTSSAMAMDSGRPVTSGILASLCEQWQNQPRTPLSHRSGNLPMSDPDVLIIGAGHNGLTCAAYLARAGLKVKVVERRNVVGGAAVTQEFHPGFRNSVAAYTVSLLNPKVIADLKLHEHGLRIVERKAQNFLPAPDGQYLLTGSNTTAASLARLSAHDAAAFGGFAAELETIADVLRHFVLRAPPNLVVQFGLPAIRESLNALETANRLRALTMEQQRLLLDLFTCSAGEMLDARFEHDLVKALFGFDAIVGNYASPYAAGSAYVMLHHAFGEVNGKKGVWGHAIGGMGAITSAMAAAARAAGAEIETSAGVREVLVEKDRVVGVTLDDGRNVRARFVASNVNPKLLYTRLLPQDALPDDVRRRMQNWKTGSGTFRMNVALSRLPSFTALPGDGDHLTAGIIIAPSLGYMDRAYQDARAHGWSREPVVEMLIPSTLDDSLAPKGQHVASLFCQHVAPELPDGASWDDHRDEVADLMIATVDRYAPGFAASVLGRQILSPLDLEREFGLVGGDIFHGALSLNQLFSARPLLGHADYRGPLKGLYHCGSGAHPGGGVTGAPGHNAAAAILNDHRSLFASRGLEHHHHHH | not soluble
18 | GASALSLSLLSISRSGNTVTLIGDFPDEAAKAALMTALNGLLAPGVNVIDQIHVDPVVRSLDFSSAEPVFTASVPIPDFGLKVERDTVTLTGTAPSSEHKDAVKRAATSTWPDMKIVNNIEVTGQAPPGPPA | soluble
19 | MMFPAKIISLRGGATEAIVSADLDRKTELAQETATRWFERRLSLRSPLDPPLPERPGRPEKPELVPPTAVERRSLHSVKGRIALLHAIAHIELNAVDLALDIVARYASEPVPHSFFDGWMQVAFEEAKHFRLVRDRLVSLGADYGDLPAHDGLWQAAHSTRNDLTARLAVVPLILEARGLDVTPSLQAKMRETGDLESAAVLDVIYNDEKGHVAIGAKWFRFLCAREKKDPAATFRQLVRSNFRGPLKPPFNDLARAEAGLTPSFYRSLTSVSHSLEHHHHHH | not soluble
20 | MVLAGGVGKRLLPLTRERPKPYLPLAGKPLYMYAVEQVAMVRSLLDRAVMVTPPGHPTPPGSLPSWLDTVEQQGEGVEAGLATALKRLGGGEEVVVSFVGYLARPNTLVRHVLDFYSVTRYKLVLALAPVTRGSESFGFVDADPSTGRVLGFSGSREEWMAGRGRVFAGVLAGDPEALEVLAGEGFVEGINTLARRGLVGSVVWPGEWLEVGYPCDLLEAPRLVVEAWAAVISAKARVARSSVIQGGVVIEEDAEVGEGAVVEGPAYLGRGAVVGRNSVVGPGVVLEEGAVVGDLVSIERSVMLERAEASGPSRLEGVVIGDGAYIAPLAAATNREGCTVVAPKTRLGPRATLEPGKTYTLEHHHHHH | not soluble
21 | MLPRFADIFQQGNRWLNWLEKQPEGAVRPVVIESVTKIMACGTTLMGYTNRCCSSPDCCHTKKVCFRCKSRSCPHCVVKAGAQWIQYLLSLVPYCPWQHIVFTLPCQYWSLVFHNRWLLAKMSRIAADVILEICHQADVEPGIFTVIHTWGRDQQWHPHIHLSTTAGGVTSGHTWKNLHFYARKVMSMWRYRITRLLSRKYPYLVMPDALAAEGSSKREWNRFLDTHYRRGWNVNVSRVMDNATHVAVYFGSYLKKPPVPMSRLEHYAGQDEIGLRYNSHRTKREEYLLMSGDESMERFSWHVADKGFRMVRYYVFLSPAKRRLLEEVVYIITETVRKTAMQITWRGMYQRLLKVDPLKCVLCGSQMRFTGLKRGYRLAEQVLMHEPLARMRWCG | not soluble
22 | MGSDKIHHHHHHMTTARRQLIDAESTPFYHVINRCVRRAFLCGEDALSGRSYEHRRDWIVDKIKQLSSVFCIDVCAYAVMSNHYHLVLKINLATQKRLSHFEVIERWTQLFFGHPVAAKFLKGDSLEEGERLLLDSLIGEWQERLGSISWFMRCLNEEIARKANREDGCKGVFWEGRFKSQALLDEQALLACMMYVDLNPIRAGIADSLQGSDYTSIQERIEELASPQSAPVALKPLLAFDGAAIATEQCGIPFHFADYLELIDWTGRAVREDKRGFIATTRPKLLAELGISDDAWITSAKEFRRQYSGISGRWDAMCAMKAKCGGKWCRGKQQSASIHPD | not soluble
